Measurements published in paper PMC11090908, “Aurora-A condensation mediated by BuGZ aids its mitotic centrosome functions” (iScience, 2024).
Blank lines part the entries; values can stand above or below the binder they belong to.

How the values were obtained:
[1] = target: T1, His-hAurora-A-CD (Aurora-A catalytic domain, 122-403aa) (human, UniProt O14965 122-403); experiment: pull-down; 5 μg His-hAurora-A-CD with 5 μg GST-BuGZ-N or GST on glutathione-agarose, 200 μL 0.1% PBST (Triton X-100), 4°C, 2 h; Western blot and Coomassie; details: both partners purified
T1 construct: Cloned into pET-28a at the BamHI site; also called His-Aurora-A-CD; hAurora-CD; source: E. coli Rosetta (DE3), purified
T1 sequence (looked up): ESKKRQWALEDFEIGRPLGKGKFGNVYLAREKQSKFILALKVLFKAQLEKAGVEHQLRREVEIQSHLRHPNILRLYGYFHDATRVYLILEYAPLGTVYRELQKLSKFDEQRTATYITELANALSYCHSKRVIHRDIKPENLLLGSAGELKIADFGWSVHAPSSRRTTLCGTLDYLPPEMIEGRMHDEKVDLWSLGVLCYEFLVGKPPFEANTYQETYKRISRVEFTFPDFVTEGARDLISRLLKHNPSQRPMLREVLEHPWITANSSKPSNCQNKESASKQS

[2] = target: T2, Aurora-A catalytic domain (CD, 128-403aa), unlabelled, as used in the NMR titration (human, UniProt O14965 128-403); experiment: NMR titration; 1H-15N HSQC of labelled Aurora-A IDR (0.1 mM) without and with unlabelled catalytic domain, 1:2 IDR:CD molar ratio; 278 K; 20 mM NaH2PO4, 50 mM NaCl, 2 mM EDTA, 1 mM DTT, pH 6.4; details: both partners purified
T2 construct: also called Aurora-A CD; AuroraA Kinase; source: purified
T2 sequence (looked up): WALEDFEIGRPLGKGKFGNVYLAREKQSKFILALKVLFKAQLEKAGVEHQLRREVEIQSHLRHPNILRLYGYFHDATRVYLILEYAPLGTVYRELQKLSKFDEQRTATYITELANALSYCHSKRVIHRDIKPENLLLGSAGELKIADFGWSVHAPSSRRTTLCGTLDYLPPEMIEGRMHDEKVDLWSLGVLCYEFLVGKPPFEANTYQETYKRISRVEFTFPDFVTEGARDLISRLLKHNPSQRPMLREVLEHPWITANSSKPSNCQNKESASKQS

binding result [1]: binds
B1: GST-BuGZ-N (hBuGZ N-terminus, 1-92aa) (domain or fragment)
chain: not shown
notes: BuGZ (ZNF207), human, N-terminus with the zinc fingers, residues 1-92; Cloned into pGEX-6P-1 at the EcoRI site; also called GST-BuGZ-N-terminus; source: E. coli Rosetta (DE3), purified

binding result [2]: binds
B2: Aurora-A IDR (intrinsic disordered region, 1-127aa) (domain or fragment, human, UniProt O14965 1-127, looked up)
chain: MDRSKENCISGPVKATAPVGGPKRVLVTQQFPCQNPLPVNSGQAQRVLCPSNSSQRIPLQAQKLVSSHKPVQNQKQKQLQATSVPHPVSRPLNNTQKSKQPLPSAPENNPEEELASKQKNEESKKRQ
notes: Aurora-A (Aurora kinase A), human, N-terminal intrinsic disordered region; 1-127aa in the NMR text and legend, 1-126aa in the constructs section; The methods list the construct pET-28a-hAurora-IDR as 1-126aa; the NMR results and legend say 1-127aa; Uniformly isotope-labelled for NMR; also called hAurora-IDR; source: E. coli BL21(DE3), isotope-labelled (15N, 13C), purified, His tag removed by TEV …
